Assay results published in US20200040064A1 (OHIO STATE INNOVATION FOUNDATION, published 2020).

Biological target: T1, protein A on wild type Staphylococcus aureus newman strain bacteria (Staphylococcus aureus (newman strain), UniProt P0A015 37-419)
T1 construct: also called wt S.A; Staphylococcus aureus (wt)
Assay: flow cytometry, labeled CD64 on wt S. aureus in the absence of rituximab

B1: fluorescently labeled human Fcγ receptor CD64 (receptor)
chain: QVDTTKAVITLQPPWVSVFQEETVTLHCEVLHLPGSSSTQWFLNGTATQTSTPSYRITSASVNDSGEYRCQRGLSGRSDPIQLEIHRGWLLLQVSSRVFTEGEPLALRCHAWKDKLVYNVLYYRNGKAFKFFHWNSNLTILKTNISHNGTYHCSGMGKHRYTSAGISVTVKELFPAPVLNASVTSPLLEGNLVTLSCETKLLLQRPGLQLYFSFYMGSKTLRGRNTSSEYQILTARREDSGLYWCEAATEDGNVLKRSPELELQVLGLQLPTP
modifications: fluorescently labeled
Does B1 bind?
Result: no binding
